These results are taken from patent EP4582451A1 (Changchun Genescience Pharmaceutical Co., Ltd., dated 2025).

Usually EC50 stands for the concentration that produces a half-maximal response. Usually Kd stands for a measure of binding affinity in units of concentration.

The target in experiment [1] is T1, human thyroid-stimulating hormone receptor (TSHR) (human, UniProt P16473 21-764). Description: cell-based or functional assay.
Experiment [2] has as its target T1, human thyroid-stimulating hormone …. Description: cell-based or functional assay. The source holds these as a separate data set.
In experiment [3] the target is T2, mouse thyroid-stimulating hormone receptor (TSHR) (mouse, UniProt P47750 22-764).
T2 construct: whole, on cells; Overexpressed on 293 cells; also called mouse TSHR; murine TSHR
Nature of the experiment: flow cytometry (FACS), 293 cells overexpressing mouse TSHR. In general terms: A flow cytometer gives signals particle by particle.

The target in experiment [4] is T3, monkey thyroid-stimulating hormone receptor (TSHR) (monkey, UniProt A0A2K5X226 21-764).
T3 construct: Overexpressed on 293 cells; also called monkey TSHR
Description: flow cytometry (FACS), 293 cells overexpressing monkey TSHR.

Experiment [5] addresses T4, hFcRn-Avi (Biosystems, FCM-H82W7) (human (printed as hFcRn), UniProt P55899 24-297; P61769 21-119, biotin on the Avi tag is implied by capture on an SA chip).
T4 construct: Bought reagent
Nature of the experiment: SPR (Biacore 8K+), hFcRn-Avi captured on SA chip, antibody in flow, pH 6.0, 25 C, steady-state fit. On the technique in general: In SPR one partner is held on a chip, and binding of the other changes the refractive index at the surface.

Experiment [6] deals with T1, human thyroid-stimulating hormone …. Nature of the experiment: flow cytometry (FACS), 293 cells overexpressing human TSHR.
Experiment [7] addresses T2, mouse thyroid-stimulating hormone …. Description: flow cytometry (FACS), 293 cells overexpressing mouse TSHR. The source holds these as a separate data set.
For experiment [8], the target named is T3, monkey thyroid-stimulating hormone …. Description: flow cytometry (FACS), 293 cells overexpressing monkey TSHR. This is another data set of the same source.
Experiment [9] concerns the target T1, human thyroid-stimulating hormone …. Nature of the experiment: cell-based or functional assay. This is another data set of the same source.
For experiment [10] the target is unchanged. Description: flow cytometry (FACS), 293 cells overexpressing human TSHR. This is another data set of the same source.

Substitutions are numbered along the chain they refer to. Read-outs that look alike come from different tables or passages of the source.

T4 sequence (P55899 24-297 limits assumed, chain 1 of 2): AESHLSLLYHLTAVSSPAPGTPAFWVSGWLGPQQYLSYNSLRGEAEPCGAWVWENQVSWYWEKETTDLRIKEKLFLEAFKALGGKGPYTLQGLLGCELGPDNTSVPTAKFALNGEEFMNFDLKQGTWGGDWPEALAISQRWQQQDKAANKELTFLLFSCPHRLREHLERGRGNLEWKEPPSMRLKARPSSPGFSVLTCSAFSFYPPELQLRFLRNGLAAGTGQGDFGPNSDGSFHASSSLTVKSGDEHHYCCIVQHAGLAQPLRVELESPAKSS
T4 sequence (P61769 21-119 limits assumed, chain 2 of 2): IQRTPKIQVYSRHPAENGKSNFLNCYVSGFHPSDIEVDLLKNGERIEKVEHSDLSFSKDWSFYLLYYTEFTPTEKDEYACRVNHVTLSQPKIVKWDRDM
T2 sequence (P47750 22-764): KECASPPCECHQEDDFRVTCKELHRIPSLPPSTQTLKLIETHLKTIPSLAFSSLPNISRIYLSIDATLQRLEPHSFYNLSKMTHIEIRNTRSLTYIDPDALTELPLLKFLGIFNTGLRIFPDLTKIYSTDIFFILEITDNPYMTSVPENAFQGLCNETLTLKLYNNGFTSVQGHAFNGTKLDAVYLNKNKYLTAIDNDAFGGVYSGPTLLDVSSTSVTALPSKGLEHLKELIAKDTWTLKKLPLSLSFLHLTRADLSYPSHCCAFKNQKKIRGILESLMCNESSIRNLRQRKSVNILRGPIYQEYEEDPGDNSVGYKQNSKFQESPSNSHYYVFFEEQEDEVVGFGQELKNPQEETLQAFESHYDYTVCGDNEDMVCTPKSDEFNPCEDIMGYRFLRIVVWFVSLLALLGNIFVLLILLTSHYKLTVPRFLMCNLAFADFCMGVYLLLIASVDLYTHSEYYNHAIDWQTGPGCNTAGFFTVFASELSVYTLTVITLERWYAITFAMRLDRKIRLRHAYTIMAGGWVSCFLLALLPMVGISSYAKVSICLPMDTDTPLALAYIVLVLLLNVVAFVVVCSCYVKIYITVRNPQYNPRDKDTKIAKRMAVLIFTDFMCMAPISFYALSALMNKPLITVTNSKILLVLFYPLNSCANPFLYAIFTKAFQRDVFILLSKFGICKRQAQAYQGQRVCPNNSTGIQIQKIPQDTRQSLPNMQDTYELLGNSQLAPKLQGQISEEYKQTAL
T1 sequence (P16473 21-764): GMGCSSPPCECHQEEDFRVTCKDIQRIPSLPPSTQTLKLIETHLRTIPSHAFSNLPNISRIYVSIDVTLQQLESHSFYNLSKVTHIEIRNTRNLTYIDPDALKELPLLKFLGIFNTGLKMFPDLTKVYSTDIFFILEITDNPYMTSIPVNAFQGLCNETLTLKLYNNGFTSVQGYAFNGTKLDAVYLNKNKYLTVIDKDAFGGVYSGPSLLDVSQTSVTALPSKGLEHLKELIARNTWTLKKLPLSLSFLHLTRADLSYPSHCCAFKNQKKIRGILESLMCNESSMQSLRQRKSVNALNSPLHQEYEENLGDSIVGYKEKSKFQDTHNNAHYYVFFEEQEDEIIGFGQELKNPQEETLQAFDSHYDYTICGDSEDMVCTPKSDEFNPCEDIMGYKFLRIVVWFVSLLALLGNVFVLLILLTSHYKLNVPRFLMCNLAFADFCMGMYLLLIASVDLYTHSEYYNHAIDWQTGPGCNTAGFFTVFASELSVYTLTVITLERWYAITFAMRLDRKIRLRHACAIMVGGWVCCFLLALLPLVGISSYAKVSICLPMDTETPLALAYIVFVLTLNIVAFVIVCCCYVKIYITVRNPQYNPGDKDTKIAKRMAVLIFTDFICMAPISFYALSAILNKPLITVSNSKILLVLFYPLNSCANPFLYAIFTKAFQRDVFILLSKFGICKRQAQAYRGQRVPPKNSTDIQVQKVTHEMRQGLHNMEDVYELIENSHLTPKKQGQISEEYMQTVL
T3 sequence (A0A2K5X226 entry or part of it limits assumed, form in doubt): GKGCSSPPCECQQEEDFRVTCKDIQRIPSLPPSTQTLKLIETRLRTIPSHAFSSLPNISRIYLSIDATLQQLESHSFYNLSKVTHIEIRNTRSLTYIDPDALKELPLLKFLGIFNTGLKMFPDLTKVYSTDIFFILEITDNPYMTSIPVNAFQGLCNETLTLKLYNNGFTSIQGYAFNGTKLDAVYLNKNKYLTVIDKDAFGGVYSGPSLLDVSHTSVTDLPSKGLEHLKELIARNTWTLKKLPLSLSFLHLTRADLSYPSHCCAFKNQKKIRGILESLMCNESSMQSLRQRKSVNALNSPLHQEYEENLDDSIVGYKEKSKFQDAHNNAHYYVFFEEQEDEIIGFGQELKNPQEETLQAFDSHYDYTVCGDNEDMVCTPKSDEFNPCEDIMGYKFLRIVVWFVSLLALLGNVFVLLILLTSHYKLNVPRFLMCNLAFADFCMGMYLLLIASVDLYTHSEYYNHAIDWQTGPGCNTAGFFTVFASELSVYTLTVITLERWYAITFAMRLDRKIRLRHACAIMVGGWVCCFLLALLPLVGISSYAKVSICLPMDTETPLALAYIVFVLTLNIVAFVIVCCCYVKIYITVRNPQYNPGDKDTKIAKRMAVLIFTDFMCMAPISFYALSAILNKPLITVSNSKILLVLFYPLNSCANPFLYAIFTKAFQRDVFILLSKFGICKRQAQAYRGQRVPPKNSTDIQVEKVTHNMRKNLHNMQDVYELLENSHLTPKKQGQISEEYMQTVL

B1: humanized antibody cAb01-VH2-DA-VL3 (named hAb01_G4P) (antibody, human IgG4 S228P, kappa)
heavy: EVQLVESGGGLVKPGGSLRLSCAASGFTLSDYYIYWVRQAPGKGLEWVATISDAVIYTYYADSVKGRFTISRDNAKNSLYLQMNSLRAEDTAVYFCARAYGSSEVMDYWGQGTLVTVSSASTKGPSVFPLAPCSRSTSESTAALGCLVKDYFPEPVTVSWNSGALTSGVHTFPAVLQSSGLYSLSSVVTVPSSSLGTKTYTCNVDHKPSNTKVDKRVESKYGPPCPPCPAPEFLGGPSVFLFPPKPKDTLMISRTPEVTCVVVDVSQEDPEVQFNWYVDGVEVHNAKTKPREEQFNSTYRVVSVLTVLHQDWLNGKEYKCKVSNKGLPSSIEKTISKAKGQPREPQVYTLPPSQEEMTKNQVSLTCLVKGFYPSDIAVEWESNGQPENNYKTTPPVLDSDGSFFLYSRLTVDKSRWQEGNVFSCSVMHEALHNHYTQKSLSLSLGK
light: EIVLTQSPATLSLSPGERATLSCSASSSVSYMHWYQQKPGQAPKRWIYDTSKLASGVPARFSGSGSGTDYTLTISSLEPEDFAVYYCQQWSSNPWTFGGGTKLEIKRTVAAPSVFIFPPSDEQLKSGTASVVCLLNNFYPREAKVQWKVDNALQSGNSQESVTEQDSKDSTYSLSSTLTLSKADYEKHKVYACEVTHQGLSSPVTKSFNRGEC
With B1, in experiment [1], the “IC50(nM), cAMP in 293-human TSHR cells activated by Tab01 (30 nM)” value (shortened to “IC50(nM), cAMP … (30 nM)”) was 2.2 nM and the “IC50(nM), cAMP in 293-human TSHR cells activated by Tab02 (6.5 nM)” value (“IC50(nM), cAMP … (6.5 nM)” below) came to 2.2 nM. For the same molecule, in [2], the “IC50 (nM), cAMP in 293-human TSHR cells activated by Tab01” value (shortened to “IC50 (nM), cAMP … by Tab01”) was 2.28 nM; the “IC50 (nM), cAMP in 293-human TSHR cells activated by Tab02” value (“IC50 (nM), cAMP … by Tab02” below) was 2.4 nM; the “Maximum inhibition rate (%), cAMP in 293-human TSHR cells activated by Tab01” value (from here on “Maximum inhibition rate (%), cAMP … by Tab01”) is 102%; the “Maximum inhibition rate (%), cAMP in 293-human TSHR cells activated by Tab02” value (“Maximum inhibition rate (%), cAMP … by Tab02” for short) was found to be 94.2%. In experiment [3], the 50% effective concentration (EC50) stood at 3.22 nM and the Maximum binding signal worked out at 123000. In experiment [4], the EC50 worked out at 2.6 nM and the Maximum binding signal came to 193000. Besides, in [5], the Kd turned out to be 343 nM and the “Response value (RU)” value worked out at 35.8 RU.

B2: hAb01_G4P_V2 (antibody, human IgG4 S228P, kappa)
heavy: EVQLVESGGGLVKPGGSLRLSCAASGFTLSDYYIYWVRQAPGKGLEWVATISDAVIYTYYADSVKGRFTISRDNAKNSLYLQMNSLRAEDTAVYFCARAYGSSEVMDYWGQGTLVTVSSASTKGPSVFPLAPCSRSTSESTAALGCLVKDYFPEPVTVSWNSGALTSGVHTFPAVLQSSGLYSLSSVVTVPSSSLGTKTYTCNVDHKPSNTKVDKRVESKYGPPCPPCPAPEFEGGPSVFLFPPKPKDTLYITREPEVTCVVVDVSQEDPEVQFNWYVDGVEVHNAKTKPREEQFNSTYRVVSVLTVLHQDWLNGKEYKCKVSNKGLPSSIEKTISKAKGQPREPQVYTLPPSQEEMTKNQVSLTCLVKGFYPSDIAVEWESNGQPENNYKTTPPVLDSDGSFFLYSRLTVDKSRWQEGNVFSCSVMHEALHNHYTQKSLSLSLGK
light: B1 light
notes: also called hAb01_G4_V2
Regarding B2, in experiment [2], the “IC50 (nM), cAMP … by Tab01” value stood at 4.18 nM; the “IC50 (nM), cAMP … by Tab02” value came out at 4.38 nM; the “Maximum inhibition rate (%), cAMP … by Tab01” value turned out to be 106%; the “Maximum inhibition rate (%), cAMP … by Tab02” value worked out at 100%. In experiment [6], this molecule gave an EC50 of 4.64 nM and a Max_MFI of 287000. In experiment [7], the EC50 came out at 2.43 nM and the Max_MFI stood at 135000. In experiment [8], the half-maximal effective concentration (EC50) was 2.94 nM and the Max_MFI was found to be 189000. In experiment [5], the Kd was found to be 121 nM and the “Response value (RU)” value came to 73.5 RU.

B3: hAb01_G1_V4 (antibody, human IgG1, kappa, L234A L235A)
heavy: EVQLVESGGGLVKPGGSLRLSCAASGFTLSDYYIYWVRQAPGKGLEWVATISDAVIYTYYADSVKGRFTISRDNAKNSLYLQMNSLRAEDTAVYFCARAYGSSEVMDYWGQGTLVTVSSASTKGPSVFPLAPSSKSTSGGTAALGCLVKDYFPEPVTVSWNSGALTSGVHTFPAVLQSSGLYSLSSVVTVPSSSLGTQTYICNVNHKPSNTKVDKKVEPKSCDKTHTCPPCPAPEAAGGPSVFLFPPKPKDTLYITREPEVTCVVVDVSHEDPEVKFNWYVDGVEVHNAKTKPREEQYNSTYRVVSVLTVLHQDWLNGKEYKCKVSNKALPAPIEKTISKAKGQPREPQVYTLPPSRDELTKNQVSLTCLVKGFYPSDIAVEWESNGQPENNYKTTPPVLDSDGSFFLYSKLTVDKSRWQQGNVFSCSVMHEALHNHYTQKSLSLSPGK
light: B1 light
For B3, in experiment [2], the “IC50 (nM), cAMP … by Tab01” value amounted to 5.4 nM; the “IC50 (nM), cAMP … by Tab02” value is 2.04 nM; the “Maximum inhibition rate (%), cAMP … by Tab01” value was found to be 94%; the “Maximum inhibition rate (%), cAMP … by Tab02” value came out at 91.1%. In experiment [6], a half-maximal effect (EC50) was put at 4.4 nM and the Max_MFI was 371000. In [7], this molecule registered an EC50 of 2.75 nM and a Max_MFI of 178000. Further, in experiment [8], the response was half-maximal at 2.77 nM (EC50) and the Max_MFI is 244000. For the same molecule, in experiment [5], the affinity, expressed as Kd, was 90 nM and the “Response value (RU)” value was found to be 94.5 RU.

B4: humanized antibody cAb01-VH1-DA-VL3 (antibody, human IgG4 S228P, kappa, V domains shown)
VH: EVQLVESGGGLVKPGGSLRLSCAASGFTLSDYYIYWVRQAPGKGLEWVSTISDAVIYTYYADSVKGRFTISRDNAKNSLYLQMNSLRAEDTAVYYCARAYGSSEVMDYWGQGTLVTVSS
VL: EIVLTQSPATLSLSPGERATLSCSASSSVSYMHWYQQKPGQAPKRWIYDTSKLASGVPARFSGSGSGTDYTLTISSLEPEDFAVYYCQQWSSNPWTFGGGTKLEIKR
notes: Humanized from mAb001
B4: in experiment [1], the “IC50(nM), cAMP … (30 nM)” value stood at 0.085 nM and the “IC50(nM), cAMP … (6.5 nM)” value is 0.054 nM. In experiment [3], this molecule came in with an EC50 of 2.9 nM and a Maximum binding signal of 106000. In experiment [4], this molecule came in with an EC50 of 2.3 nM and a Maximum binding signal of 180000.

B5: humanized antibody cAb01-VH2-DA-VL2 (antibody, human IgG4 S228P, kappa, V domains shown)
VH: B4 VH with S49A, Y95F
VL: B4 VL with K44R, V57I
notes: Humanized from mAb001
Take B5: in [9], the “IC50(nM), cAMP … (30 nM)” value amounted to 0.28 nM; the “IC50(nM), cAMP … (6.5 nM)” value turned out to be 0.15 nM; the “Inhibition rate (%), cAMP in 293-human TSHR cells activated by Tab01 (30 nM)” value was 76.7%; the “Inhibition rate (%), cAMP in 293-human TSHR cells activated by Tab02 (6.5 nM)” value is 86.2%. In experiment [10], the EC50 turned out to be 3.71 nM and the Maximum binding signal came out at 396000. For the same molecule, in experiment [3], the 50% effective concentration (EC50) was 2.16 nM and the Maximum binding signal is 117000. In experiment [4], this molecule yielded a half-maximal effective concentration (EC50) of 2.14 nM and a Maximum binding signal of 193000.
